Experimental data from US20250382344A1, “Soluble GLP1/GIP/NPY2 Receptor Triple Agonists” (Boehringer Ingelheim International GmH, priority 2024, published 2025).
Changes are numbered by the printed parent chain. *1 amine or outer side, *2 acyl side, *3 side chain or, on linkers, in order; H or OH if unused. Where no end group is shown, it is not given here. Side-chain parts run from the residue outwards. [ ]: non-standard residue; d: D form. The star is where a group is joined. C20 diacid = O=C(O)CCCCCCCCCCCCCCCCCCC(=O)*; C18 diacid = O=C(O)CCCCCCCCCCCCCCCCC(=O)*; γGlu = O=C(O)[C@H](CCC(=O)[*:2])N[*:1]; εLys = N[C@@H](CCCCN[*:1])C(=O)[*:2]; AEEA = NCCOCCOCC(=O)O; Aib = CC(C)(N)C(=O)O

T1: human GIP receptor (human, UniProt P48546 22-466)
T1 sequence (looked up): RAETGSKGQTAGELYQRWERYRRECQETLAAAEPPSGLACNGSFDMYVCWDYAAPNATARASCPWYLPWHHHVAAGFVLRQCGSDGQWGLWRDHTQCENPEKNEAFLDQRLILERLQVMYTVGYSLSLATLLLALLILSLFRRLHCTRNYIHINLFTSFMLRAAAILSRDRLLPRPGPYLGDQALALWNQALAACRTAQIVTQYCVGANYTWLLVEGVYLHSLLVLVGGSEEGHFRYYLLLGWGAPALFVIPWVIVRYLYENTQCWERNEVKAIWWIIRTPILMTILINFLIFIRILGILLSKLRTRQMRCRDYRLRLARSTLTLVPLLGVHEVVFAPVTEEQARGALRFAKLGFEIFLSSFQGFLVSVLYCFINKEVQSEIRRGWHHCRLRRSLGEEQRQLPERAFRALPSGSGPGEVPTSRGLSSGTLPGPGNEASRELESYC

T2: human GIP receptor (human, UniProt P48546 22-466)
T2 sequence (looked up): T1 sequence (looked up)

T3: human neuropeptide Y2 receptor (human, UniProt P49146 1-381)
T3 sequence (looked up): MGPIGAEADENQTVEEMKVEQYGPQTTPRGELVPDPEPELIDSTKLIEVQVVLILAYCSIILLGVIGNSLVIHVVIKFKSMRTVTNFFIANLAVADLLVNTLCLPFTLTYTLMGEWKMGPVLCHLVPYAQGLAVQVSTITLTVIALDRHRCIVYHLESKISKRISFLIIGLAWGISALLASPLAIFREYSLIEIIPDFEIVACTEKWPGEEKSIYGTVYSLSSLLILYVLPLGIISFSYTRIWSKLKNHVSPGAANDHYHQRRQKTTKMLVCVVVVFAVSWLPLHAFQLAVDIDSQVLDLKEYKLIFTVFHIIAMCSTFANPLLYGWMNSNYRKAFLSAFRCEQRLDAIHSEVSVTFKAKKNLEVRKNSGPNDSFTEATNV

T4: human neuropeptide Y2 receptor (human, UniProt P49146 1-381)
T4 sequence (looked up): T3 sequence (looked up)

B1: Compound 73 (peptide)
peptide: Y[Aib]EGTFTSDYSI[Aib]LEKQAQ[Aib]EFVRHLINK([AEEA-AEEA-γGlu-γGlu-γGlu-γGlu-C18 diacid])[Aib]TRQRY-NH2
B2: Compound 55 (peptide)
peptide: YXEGTFTSDYSIXLDAQAQXAFVRHLINKXTRQRY
modifications: Aib at 2, 13, 20, 30; Lys29 epsilon-amino acylated with C18DA-gGlu-gGlu-gGlu-gGlu-gGlu-gGlu-eLys; C-terminal amide
B3: Compound 1 (peptide)
peptide: B2 peptide with Y10L, D15E, A16K
modifications: Aib at 2, 13, 20, 30; Lys29 epsilon-amino acylated with C20DA-gGlu-gGlu-gGlu-gGlu-gGlu-AHX-AHX; C-terminal amide
B4: Compound 5 (peptide)
peptide: B2 peptide with D15E, A16X
modifications: Aib at 2, 13, 16, 20, 30; Lys29 epsilon-amino acylated with C18DA-gGlu-gGlu-gGlu-gGlu-gGlu-gGlu-eLys; C-terminal amide
B5: Compound 69 (peptide)
peptide: B2 peptide with D15E, A16K, X30L
modifications: Aib at 2, 13, 20; Lys29 epsilon-amino acylated with C18DA-gGlu-gGlu-gGlu-gGlu-gGlu-AHX; C-terminal amide
B6: Compound 61 (peptide)
peptide: B2 peptide with D15E, A16K, X20A
modifications: Aib at 2, 13, 30; Lys29 epsilon-amino acylated with C18DA-gGlu-gGlu-gGlu-gGlu-gGlu-gGlu-eLys; C-terminal amide
B7: Compound 75 (peptide)
peptide: B2 peptide with D15E, A16E
modifications: Aib at 2, 13, 20, 30; Lys29 epsilon-amino acylated with C18DA-gGlu-gGlu-gGlu-gGlu-gGlu; C-terminal amide
B8: Compound 65 (peptide)
peptide: B2 peptide with D15E, A16L
modifications: Aib at 2, 13, 20, 30; Lys29 epsilon-amino acylated with C18DA-gGlu-gGlu-gGlu-gGlu-gGlu-gGlu-eLys; C-terminal amide
B9: Compound 66 (peptide)
peptide: B2 peptide with D15E, A16K, X30I
modifications: Aib at 2, 13, 20; Lys29 epsilon-amino acylated with C18DA-gGlu-gGlu-gGlu-gGlu-gGlu-gGlu-eLys; C-terminal amide
B10: Compound 4 (peptide)
peptide: B2 peptide with D15E, A16K, Q17A
modifications: Aib at 2, 13, 20, 30; Lys29 epsilon-amino acylated with C20DA-gGlu-gGlu-gGlu-gGlu-gGlu-gGlu-eLys; C-terminal amide
B11: Compound 83 (peptide)
peptide: B2 peptide with D15E, A16K, A21E, X30L
modifications: Aib at 2, 13, 20; Lys29 epsilon-amino acylated with C18DA-gGlu-gGlu-gGlu-gGlu-gGlu-gGlu-eLys; C-terminal amide
B12: Compound 40 (peptide)
peptide: B2 peptide with A16E
modifications: Aib at 2, 13, 20, 30; Lys29 epsilon-amino acylated with C18DA-gGlu-gGlu-gGlu-gGlu-gGlu-gGlu-eLys; C-terminal amide
B13: Compound 76 (peptide)
peptide: B2 peptide with D15E, A16K, V23I
modifications: Aib at 2, 20, 30; aMeL at 13; Lys29 epsilon-amino acylated with C18DA-gGlu-gGlu-gGlu-gGlu-gGlu-gGlu-eLys; C-terminal amide
B14: Compound 6 (peptide)
peptide: B2 peptide with D15E, A16N
modifications: Aib at 2, 13, 20, 30; Lys29 epsilon-amino acylated with C18DA-gGlu-gGlu-gGlu-gGlu-gGlu-gGlu-eLys; C-terminal amide
B15: Compound 39 (peptide)
peptide: B2 peptide with D15E, A16K, A21E, X30L
modifications: Aib at 2, 13, 20; Lys29 epsilon-amino acylated with C20DA-gGlu-gGlu-gGlu-gGlu-gGlu-gGlu-eLys; C-terminal amide
B16: Compound 84 (peptide)
peptide: B2 peptide with D15E, A16K, Q19Y
modifications: Aib at 2, 13, 20, 30; Lys29 epsilon-amino acylated with C18DA-gGlu-gGlu-gGlu-gGlu-gGlu-gGlu-eLys; C-terminal amide
B17: Compound 50 (peptide)
peptide: B2 peptide with D15E, A16K, H25Q
modifications: Aib at 2, 13, 20, 30; Lys29 epsilon-amino acylated with C18DA-gGlu-gGlu-gGlu-gGlu-gGlu; C-terminal amide
B18: Compound 82 (peptide)
peptide: Y[Aib]EGTFTSDYSI[Aib]LEKQAE[Aib]AFVRHLINK([εLys-εLys-γGlu-γGlu-γGlu-γGlu-γGlu-γGlu-C20 diacid])[Aib]TRQRY-NH2
B19: Compound 64 (peptide)
peptide: Y[Aib]EGTFTSDYSI[Aib]LEEEAQ[Aib]EFVRHLINK([γGlu-γGlu-γGlu-γGlu-C18 diacid])[Aib]TRQRY-NH2
B20: Compound 60 (peptide)
peptide: Y[Aib]EGTFTSDLSI[Aib]LEKQAQ[Aib]AFVRHLINK([γGlu-εLys-γGlu-γGlu-γGlu-γGlu-γGlu-C20 diacid])[Aib]TRQRY-NH2
B21: Compound 79 (peptide)
peptide: Y[Aib]EGTFTSDYSI[Aib]LEKQAQ[Aib]EFVRHLINK([γGlu-γGlu-γGlu-γGlu-C18 diacid])[Aib]TRQRY-NH2
B22: Compound 169 (peptide)
peptide: B2 peptide with Y10L, D15E, A16K
modifications: Aib at 2, 13, 20, 30; Lys29 epsilon-amino: C18DA-gGlu-gGlu-gGlu-gGlu-gGlu-gGlu-eLys; C-terminal amide
B23: Compound 126 (peptide)
peptide: B2 peptide with D15E, A16K, X30V
modifications: Aib at 2, 13, 20; Lys29 epsilon-amino: C18DA-gGlu-gGlu-gGlu-gGlu-gGlu-gGlu-eLys; C-terminal amide
B24: Compound 95 (peptide)
peptide: B2 peptide with D15E, A16G
modifications: Aib at 2, 13, 20, 30; Lys29 epsilon-amino: C18DA-gGlu-gGlu-gGlu-gGlu-gGlu-gGlu-eLys; C-terminal amide
B25: Compound 86 (peptide)
peptide: B2 peptide with D15E, A16K, Y35X
modifications: Aib at 2, 13, 20, 30; Phe4F at 35; Lys29 epsilon-amino: C18DA-gGlu-gGlu-gGlu-gGlu-gGlu-gGlu-eLys; C-terminal amide
B26: Compound 144 (peptide)
peptide: B2 peptide with D15E, A16K, A21S
modifications: Aib at 2, 13, 20, 30; Lys29 epsilon-amino: C18DA-gGlu-gGlu-gGlu-gGlu-gGlu-gGlu-eLys; C-terminal amide
B27: Compound 93 (peptide)
peptide: B2 peptide with G4A, D15E, A16K
modifications: Aib at 2, 13, 20, 30; Lys29 epsilon-amino: C18DA-gGlu-gGlu-gGlu-gGlu-gGlu-gGlu-eLys; C-terminal amide
B28: Compound 170 (peptide)
peptide: B2 peptide with D15E, A16K, X20E
modifications: Aib at 2, 13, 30; Lys29 epsilon-amino: C18DA-gGlu-gGlu-gGlu-gGlu-gGlu-gGlu-eLys; C-terminal amide
B29: Compound 143 (peptide)
peptide: B2 peptide with D15E, A16K, Q17A
modifications: Aib at 2, 13, 20, 30; Lys29 epsilon-amino: C18DA-gGlu-gGlu-gGlu-gGlu-gGlu-gGlu-eLys; C-terminal amide
B30: Compound 102 (peptide)
peptide: B2 peptide with A16K, V23I
modifications: Aib at 2, 13, 20, 30; Lys29 epsilon-amino: C18DA-gGlu-gGlu-gGlu-gGlu-gGlu-gGlu-eLys; C-terminal amide
B31: Compound 148 (peptide)
peptide: Y[Aib]EGTFTSDYSI[Aib]LEKQAE[Aib]AFVRHLINK([εLys-γGlu-AEEA-γGlu-γGlu-γGlu-γGlu-C20 diacid])[Aib]TRQRY-NH2
B32: Compound 113 (peptide)
peptide: Y[Aib]EGTFTSDYSI[Aib]LDKQAQ[Aib]EFVRHLINK([εLys-γGlu-γGlu-γGlu-γGlu-γGlu-C18 diacid])[Aib]TRQRY-NH2
B33: Compound 138 (peptide)
peptide: Y[Aib]EGTFTSDYSI[Aib]LDEQAQ[Aib]AFVRHLINK([εLys-γGlu-γGlu-γGlu-γGlu-γGlu-C20 diacid])[Aib]TRQRY-NH2

Target: T1, human GIP receptor
Test: cell-based or functional assay

| Binder | EC50, CreLuc reporter, 0.5% hP | EC50, CreLuc reporter, 100% hP |
| --- | --- | --- |
| B1 | 0.4 nM | 5.9 nM |
| B2 | 0.4 nM | 7 nM |
| B3 | 0.2 nM | 10.3 nM |
| B4 |  | 25 nM |
| B5 | 0.2 nM | 5.5 nM |
| B6 | 0.4 nM |  |
| B7 | 0.3 nM | 13.2 nM |
| B8 | 0.7 nM | 16.8 nM |
| B9 | 0.2 nM |  |
| B10 | 0.3 nM | 11.5 nM |
| B11 | 0.4 nM |  |
| B12 | 0.3 nM |  |
| B13 |  | 0.5 nM |
| B14 | 0.7 nM | 7.3 nM |
| B15 | 0.9 nM | 22.9 nM |
| B16 | 5 nM | 48.4 nM |
| B17 | 0.7 nM | 23.3 nM |
| B18 |  | 11.7 nM |
| B19 | 0.5 nM |  |
| B20 | 0.3 nM | 8 nM |
| B21 |  | 4.7 nM |

Target: T2, human GIP receptor
Test: cell-based or functional assay

| Binder | EC50, CreLuc reporter, 0.5% hP | EC50, CreLuc reporter, 100% hP |
| --- | --- | --- |
| B22 | 0.4 nM |  |
| B23 | 0.4 nM |  |
| B24 |  | 9.3 nM |
| B25 | 0.3 nM | 5.9 nM |
| B26 | 0.4 nM | 4.8 nM |
| B27 |  | 17.6 nM |
| B28 | 0.4 nM |  |
| B29 | 0.3 nM |  |
| B30 | 0.1 nM | 2.8 nM |
| B31 | 0.8 nM |  |
| B32 | 0.2 nM | 5.5 nM |
| B33 | 0.5 nM | 11.5 nM |

Target: T3, human neuropeptide Y2 receptor
Test: cell-based or functional assay

| Binder | EC50, CreLuc reporter, 0.5% hP | EC50, CreLuc reporter, 100% hP |
| --- | --- | --- |
| B24 | 58 nM | 96.3 nM |
| B25 | 33.2 nM | 162 nM |
| B27 |  | 24.8 nM |
| B28 | 43.8 nM | 244 nM |

Target: T4, human neuropeptide Y2 receptor
Test: cell-based or functional assay

| Binder | EC50, CreLuc reporter, 100% hP | EC50, CreLuc reporter, 0.5% hP |
| --- | --- | --- |
| B1 | 136 nM |  |
| B2 | 108 nM | 18.3 nM |
| B3 | 127 nM | 12.6 nM |
| B4 | 89.4 nM | 28.6 nM |
| B5 | 56 nM | 7 nM |
| B6 | 42.1 nM | 24.1 nM |
| B7 | 904 nM | 191 nM |
| B8 | 406 nM | 65.8 nM |
| B9 | 99.3 nM | 9.8 nM |
| B10 | 194 nM | 17.7 nM |
| B11 | 31.7 nM | 16.8 nM |
| B12 | 59.4 nM | 16.2 nM |
| B13 | 24.3 nM | 7.2 nM |
| B14 | 51 nM | 14.7 nM |
| B15 | 119 nM | 10.8 nM |
| B16 | 55 nM | 18.5 nM |
| B17 | 522 nM | 335 nM |
| B18 | 75.1 nM |  |
| B19 | 720 nM | 162 nM |
| B20 | 124 nM |  |
| B21 | 99.1 nM | 57.9 nM |
